Source: publication PMC8016844

How the values were obtained:
[1] = target: Shp2 N-terminal SH2 domain (Shp2_(NSH2)) (UniProt Q06124); experiment: MST; target protein labelled with Atto 488 NHS ester, 100 nM; unlabelled ligand serially diluted; Monolith NT.115; 25 °C; 20 mM HEPES pH 7.5, 150 mM NaCl, 0.5 mM TCEP, 0.005% Tween 20
[2] = target: isolated CSH3 domain of Grb2 (Grb2_(CSH3)); experiment: as above
Grb2 (Homo sapiens) = Grb2 (Homo sapiens) (UniProt P62993); conditions: cited from earlier work

Row | Kd [2] | Substance | other results
1 | – | isolated CSH3 domain of Grb2 (Grb2_(CSH3)) (domain or fragment) | Kd [1]: 207 µM
2 | 18.1 µM | Shp2 PTP domain peptide WPDHGV429PSDP432GGVLDF | –
3 | – | Grb2 (from UniProt P62993) | Kd (Grb2 (Homo sapiens)): 0.8 µM
4 | 173 µM | Shp2 PTP domain peptide TKCNNS322KPKK325SYIATQ | –
5 | 122 µM | Shp2 PTP domain peptide VERGKS366KCVK369YWPDEY | –
